Results reported in paper PMC11779939, “Identification of novel 7-hydroxycoumarin derivatives as ELOC binders with potential to modulate CRL2 complex formation” (Scientific Reports, 2025).
Non-standard residues stand in square brackets, D forms with d. No end group written: not given here. *: point of attachment. FITC = O=C1OC2(c3ccc(O)cc3Oc3cc(O)ccc32)c2ccc(NC(=S)*)cc21; Hyp = O=C(O)[C@@H]1C[C@@H](O)CN1

Target: VHL-ELOB-ELOC (VBC) complex (UniProt P40337 54-213; Q15370 1-104; Q15369 17-112)
Assay: fluorescence polarisation; competitive FP for fragment screening, 384-well plates; 0.5 uM VBC, 20 nM FITC peptide, 10 mM HEPES pH 7.5, 0.0025% Tween 20, 50 mM NaCl, 1 mM EDTA, 1 mM DTT; small-molecule competitors (VH032 as reference)
Settings: both partners purified

Binder: {FITC}-LEALA[Hyp]YIPA [FITC-LEALA-HyP-YIPA peptide]
- binding result: binds
